According to US9539289B2, “Immunostimulatory compositions and methods of manufacture” (APIMED MEDICAL HONEY LIMITED, priority 2012, dated 2017):

How the values were obtained:
apisimin = target: T1, apisimin (Apis mellifera, UniProt Q8ISL8); test: Dot blot assay of apisimin self binding versus insulin and bovine albumin (Example 1, FIG. 1); conditions: darker colour means greater binding
T1 sequence (Q8ISL8 25-78): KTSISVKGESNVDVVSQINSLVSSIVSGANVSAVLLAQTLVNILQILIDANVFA
Method: FIG. 1 illustrates the results of a dot blot assay to test the self binding properties of apisimin against two other proteins not know to be self binding being insulin and bovine albumin. 1=apisimin, 2=insulin, 3=bovine albumin. The darker the colour the greater the degree of binding;
An experiment was conducted to confirm the self-binding nature of apisimin versus other peptides being insulin and bovine albumin.

monocyte cell line = test: TNF-α response of a monocyte cell culture after 4 hours of treatment (Examples 3, 5-8); assay type: cell-based; conditions: 100 ng/ml dose
Method: The immunostimulatory effect was then tested using a variety of samples. Prior to the trial a monocyte cell culture was produced in order to eliminate any natural variation errors. The monocyte culture was then stimulated using a variety of agents and TNF-α concentration measured after 4 hours of treatment with the various reagents.
LPS was used as a positive control being a known and strongly significant stimulant. Cells alone were used as a negative control.
The immunostimulatory effect was tested further using a variety of samples including royal jelly. Prior to the trial a monocyte cell culture was produced in order to eliminate any natural variation errors. The monocyte culture was then stimulated using a variety of agents and TNF-α concentration measured after 4 hours of treatment with the various reagents.
The immunostimulatory effect was tested further using a variety of honey derived AGP compounds and apisimin. […] The monocyte culture was then stimulated using a variety of agents and TNF-α concentration measured after 4 hours of treatment with the various reagents.
The immunostimulatory effect was tested further using a honey derived AGP compound, apisimin and Polymyxin B acting as an LPS inhibitor. […] The monocyte culture was then stimulated using a variety of agents and TNF-α concentration measured after 4 hours of treatment with the various reagents. […]

Substance | self binding (dot blot colour) (apisimin) | TNF-α response (monocyte cell line)
insulin: comparison protein not known to be self binding | weak or not self binding | –
lipopolysaccharide [LPS] | – | approximately 1700 μg/ml
albumin: bovine albumin, comparison protein not known to be self binding | weak or not self binding | –
